Columns and labels:
VHH H3-2 [1] = assay: crystal structure; 280 μM H3-2 with 1 mM tau-Cter peptide; 23% PEG-MME 2000, 0.1 M potassium acetate; 1.8 Å
VHH H3-2 [2] = assay: SEC; Superdex 75 Increase 10/300 GL, PBS, 16 °C; 20 µM VHH without or with 40 µM tau-Cter peptide

stoichiometry N (VHH H3-2 [1]): 2 | stoichiometry N (VHH H3-2 [2]): 2
B1: VHH H3-2 (VHH)
VHH: EVQLQASGGGFVQPGGSLRLSCAASGYTSGDEIMGWFRQAPGKEREFVSAISWQSGTSTYYADSVKGRFTISRDNSKNTVYLQMNSLRAEDTATYYCAPMTLAETYYEWLISGYWGQGTQVTVSS
